Data: patent US20190224279A1, “PHARMACEUTICAL ASSOCIATION COMPRISING A GROWTH FACTOR RECEPTOR AGONIST CONJUGATED TO A BIOACTIVE CARRIER FOR CONVERTING A NEOPLASTIC CELL INTO A NON-NEOPLASTIC CELL AND USES THEREOF” (HISTIDE AG, priority 2015, published 2019)
No end group written: not given here.

Target: growth factor receptors
Assay: cell-based or functional assay

Row | Binder | p-Smad1/5/8 (%)
1 | VPQALSPISILFIVGRKPKVYKQYEMIVERS (not fully specified) [GFR-binding compound of SEQ ID NO: 89] | 41%
2 | VPTHHSAISMLYLELGGDKPLENYQFLQ (not fully specified) [GFR-binding compound of SEQ ID NO: 97] | 46%
3 | TPTKMSPINMLYFNEKNNIIYGKIPGMVVD (not fully specified) [GFR-binding compound of SEQ ID NO: 76] | 55%
4 | VPTHHSAISTLYLELAGEKPLKNYQFLQHNK (not fully specified) [GFR-binding compound of SEQ ID NO: 96] | 47%
5 | APTKLEPLPMVYYEERRNVIEQLSNNMVVR (not fully specified) [GFR-binding compound of SEQ ID NO: 86] | 34%
6 | VPQALSPINMLYFNEKNQIIYGKIPFLQHNK (not fully specified) [GFR-binding compound of SEQ ID NO: 75] | 54%
7 | ASASPSSVPQDLEPLTILYYVGRTPKVEQLSNMV (not fully specified) [GFR-binding compound of SEQ ID NO: 65] | 38%
8 | VPTEESNITTQIMRIKPHQGQHIGEMSFLQH (not fully specified) [GFR-binding compound of SEQ ID NO: 84] | 22%
9 | VPTEESNITTQIMRIKPHQGQHIGEMSFLQH (not fully specified) [GFR-binding compound of SEQ ID NO: 69] | 32%
10 | APTQLSAISTLYLEIVRKKPLKNYQFLQHNK (not fully specified) [GFR-binding compound of SEQ ID NO: 77] | 52%
11 | RNVQCRPTQLEPLPIVYYEIVRKKPEQLSNTLEDHLA (not fully specified) [GFR-binding compound of SEQ ID NO: 81] | 41%
12 | RNVQCRPTQLEPLPIVYYEIVRKKPEQLSNTLEDHLA (not fully specified) [GFR-binding compound of SEQ ID NO: 66] | 38%
13 | ASASPSSVPQDLEPLTILYYVGRTPKVEQLSNMVEDH (not fully specified) [GFR-binding compound of SEQ ID NO: 80] | 34%
14 | VPARLSPISILYIDAANNVVYKQYEDMVKS (not fully specified) [GFR-binding compound of SEQ ID NO: 93] | 44%
15 | RNVQCRPTQLEPLPIVYYEIVRKKPEQLSNTLE (not fully specified) [GFR-binding compound of SEQ ID NO: 95] | 29%
16 | VPTELSPISILFIVGGKPKVYKQYENMVVE (not fully specified) [GFR-binding compound of SEQ ID NO: 90] | 36%
17 | APTQLSAISTLYLEIVRKKPLKNYQEMEDH (not fully specified) [GFR-binding compound of SEQ ID NO: 78] | 58%
18 | VPTKLSPISILYIDKMGVPTYKQYEEGMSVAE (not fully specified) [GFR-binding compound of SEQ ID NO: 82] | 35%

Row | Binder | p-Smad1/5/8 (%)
19 | VPARLSPISILYIDEMGVPTYKQYEEGMSVAE (not fully specified) [GFR-binding compound of SEQ ID NO: 83] | 33%
20 | VPQALSPISILYIDDMGVPTYKQYEEGMSVAE (not fully specified) [GFR-binding compound of SEQ ID NO: 68] | 39%
21 | VPTKLSPISILYIDDMGVPTYKQYEEGMSVAE (not fully specified) [GFR-binding compound of SEQ ID NO: 67] | 40%
22 | VPQALNAISTLYFDDSSNVILKKYRNMAVS (not fully specified) [GFR-binding compound of SEQ ID NO: 72] | 48%
23 | VPARLSPISILYIDAANNVVYKQYEDM (not fully specified) [GFR-binding compound of SEQ ID NO: 74] | 51%
24 | NDEGLECVPTEERPVQVRKIRIKPHQGQKKATVFLQHNK (not fully specified) [GFR-binding compound of SEQ ID NO: 64] | 36%
25 | NDEGLECVPTEERPVQVRKIRIKPHQGQKKATVFLQHNK (not fully specified) [GFR-binding compound of SEQ ID NO: 79] | 27%
26 | TQVQLEPLTLLYYDENEKVIEQLSNDMVVE (not fully specified) [GFR-binding compound of SEQ ID NO: 71] | 47%
27 | SRVHHNAISTLYFDESSNVILKKYRGMSVVE (not fully specified) [GFR-binding compound of SEQ ID NO: 91] | 56%
28 | VPEKMSSLSILFFDENKNAALKVYPNMTVE (not fully specified) [GFR-binding compound of SEQ ID NO: 92] | 52%
29 | VPEKMSSLSILFFDENKNVVLKVYPNMAVS (not fully specified) [GFR-binding compound of SEQ ID NO: 73] | 44%
30 | VPTKLSAISTLYLDLAREEPLKNYQEMVVE (not fully specified) [GFR-binding compound of SEQ ID NO: 87] | 38%
31 | APTKLEPLTIVYYDDSSNVIEQLSNNMVVR (not fully specified) [GFR-binding compound of SEQ ID NO: 88] | 32%
32 | VSQDLSAISTLYLKIVRKEPLKNYQEMVEE (not fully specified) [GFR-binding compound of SEQ ID NO: 98] | 39%
33 | TPTKMSPINMLYFNEKNNIIYGKIPGM (not fully specified) [GFR-binding compound of SEQ ID NO: 94] | 41%
34 | VPTELSPISILFIRIKPHQGHLGEMSAAVVE (not fully specified) [GFR-binding compound of SEQ ID NO: 70] | 30%
35 | VPQALSPISILFIRLKPHQGHLGEMSNMVVR (not fully specified) [GFR-binding compound of SEQ ID NO: 85] | 26%
